The values that follow come from patent US20260217819A1 (HANSOH BIO, published 2026).

For experiment [1], the target named is human CDH17 as originally expressed in cells (AsPC1, GP2d) (human, UniProt Q12864 23-832). As to the kind of experiment: cell-based or functional assay.
For experiment [2], the target named is cynomolgus CDH17-His tag (Acro Biosystems, catalog number CA7-C52H4) (cynomolgus). In words: Octet BLI, antibody on AHC biosensor, His-tagged antigen 200 nM to 3.1 nM.

B1: anti-CDH17 recombinant antibody 4F9 (human IgG1) (antibody, V domains shown)
VH: QVQLQESGPGLVKPSGTLSLTCAVSGGSISSSNWWSWVRQPPGKGLEWIGEIYHSGSTSYNPSLKSRVTISVDKSKNQFSLKLSSVTAADTAVYYCARNDWGFPLDCWGQGTLVTVSS
VL: DIQMTQSPSSLSASVGDRVTITCRASQSISSYLNWYQQKPGKAPKLLIYAASSLQSGVPSRFSGSGSGTHFTLTISSLQPEDFATYYCQQSHNIPITFGQGTRLEIKR
With B1, the “IC50 of indirect killing assay to evaluate the internalization of recombinant anti-CDH17 antibodies into AsPC1 cells” value (from here on “IC50 of indirect killing assay”) in experiment [1] was 0.29 nM.

B2: anti-CDH17 recombinant antibody 2F9 (human IgG1) (antibody, V domains shown)
VH: EVQLVESGGGVVRPGGSLRLSCAASGFTFDDYGMSWVRQAPGKGLEWVSGLSWNGGNTYYADSVKGRFTISRDNAKNSLYLQMNSLRAEDTALYYCARGSRYNWNYDAFDIWGQGTLVTVSS
VL: DIQMTQSPSSLSASIGDRVTITCRASQGIRNALGWYQQKPGKAPKRLIYAASNLQSGVPSRFSGSGSGTEFTLTISSLQPEDFATYYCLQHNSYPFTFGPGTKVEIKR
Turning to B2, the “IC50 of indirect killing assay” value in experiment [1] came to 0.14 nM.

B3: anti-CDH17 recombinant antibody 9E2 (human IgG1) (antibody, V domains shown)
VH: EVQLVESGGGVVRPGGSLRLSCAASGFTFDNYGMSWVRQAPGKGLEWVSGINWNGGSTYYADSVRGRFTISRDNAKNSLYLQMNSLRAEDTALYYCARGSRYNWSYDAFDIWGQGTLVTVSS
VL: DIQMTQSPSSLSASVGDRVTITCRASQGVRNALGWYQQKPGKAPKRLIYAASSLQSGVPSRFSGSGSGTEFTLTISSLQPEDFATYYCLQHNSYPFTFGPGTKVEIKR
For B3, the “IC50 of indirect killing assay” value in experiment [1] came out at 0.15 nM.

B4: anti-CDH17 recombinant antibody 14B12 (human IgG1) (antibody, V domains shown)
VH: QVQLQESGPGLVKPSETLSLTCTVSGGSINTYYRSWIRQPPGKGLEWIGYIYYSGNTNYNPSLKSRVTISADTSKNQFSLNLISVTAADTAMYYCARAQYGEEAFDIWGQGTLVTVSS
VL: DIQMTQSPSSLSASVGDRVTITCRASQSITTYLNWYQQKPGKAPQLLIFAASRLQTGVPSRFSGSGSGTDFTLTISSLLPGDFATYYCQQSYNTPPTFGGGTKVEIKR
Take B4: the “IC50 of indirect killing assay” value in experiment [1] is 0.09 nM. In addition, in experiment [2], the Kd (commonly a measure of binding affinity in units of concentration) came out at 2.5 nM and the association rate constant (kon) (in general, the second-order rate constant of association) is 620000 M⁻¹ s⁻¹.

B5: anti-CDH17 recombinant antibody 10E11 (human IgG1) (antibody, V domains shown)
VH: EVQLVQSGTEVKKPGESLKISCKDSGYRFSSYWIGWVRQMPGKGLEWMGIIYPGDSDTRYSPSFQGQVTISADKSISTAYLQWRSLKASDTAMYYCARRGWVNYFDYWGQGTLVTVSS
VL: DIQMTQSPSSVSASVGDRVTITCRASQGISNWLGWYQQKPGKAPKLLIYAASSLQSGVPSRFSGSGSGTDFTLTISSLQPEDFATYYCQQANSFPLTFGGGTKVEIKR
Take B5: the “IC50 of indirect killing assay” value in experiment [1] came out at 0.08 nM. In addition, in experiment [2], the dissociation constant (Kd) was found to be 15 nM, the off-rate (koff) (commonly a measure of how fast the partners let go of each other) turned out to be 0.0012 s⁻¹ and the kon came to 80000 M⁻¹ s⁻¹.

B6: anti-CDH17 recombinant antibody 15A4 (human IgG1) (antibody, V domains shown)
VH: QVQLVESGGGVVQPGRSLRLSCAASGFNFSSYGMHWVRQAPGKGLEWVAFVWYDGSNQNYADSVKGRFTISRDNSNNTLYLQMNSLRAEDTAVYYCARDRYSSGWDVFDYWGQGTLVTVSS
VL: DIQMTQSPSSVSASVGDRVTITCRASQGISSWLAWYQQKPGKAPKLLIFAASSLQSGVPSRFSGSGSGTGFTLTISSLQPEDFATYYCQQAKSFPPTFGQGTKVEIKR
As to B6, the “IC50 of indirect killing assay” value in experiment [1] came to 1.99 nM.

B7: anti-CDH17 recombinant antibody 1H10 (human IgG1) (antibody, V domains shown)
VH: QVQLVESGGGVVQPGRSLRLSCVASGFTFSSYGMHWVRQAPGKGLEWVTFIWYDGSNKNYADSVKGRFTISRDNSKNTLNLQMNSLRVEDTAVYYCARDRYSSGWDVFDYWGQGTLVTVSS
VL: DIQMTQSPSSVSASVGDRVTITCRASQDISSWLAWYQQQPGKAPKLQIYAASSLQSGVPSRFSGSGSGTDFTLTISSLQPEDFATYYCQQAKSFPPTFGQGTKVEIKR
Turning to B7, in experiment [1], the “IC50 of indirect killing assay” value was 0.19 nM.

B8: anti-CDH17 recombinant antibody 17F3 (human IgG1) (antibody, V domains shown)
VH: EVQLVESGGGLVKSGGSLRLSCAASGFTFSSYSLKWVRQAPGKGLEWVSSISSSSGYIYYADSVKGRFTISRDNAKNSLYLQMNSLRAEDTAMYYCARAVSTIAARPGYYYYYMDVWGKGTLVTVSS
VL: DIQMTQSPSSVSASIGDRVTITCRASQDISTWFAWYQQKPGKAPKLLIYAASTLRSGVPSRFSGSGSGTDFTLTINSLQPEDFATYYCQQANSFPLTFGGGTKVEIKR
For B8, the “IC50 of indirect killing assay” value in experiment [1] was 0.08 nM.

B9: anti-CDH17 recombinant antibody 13C7 (human IgG1) (antibody, V domains shown)
VH: QITLKESGPTLVKPTQTLTLTCTFSGFSLSTSGVGVGWIRQPPGKALEWLALIYWNDDKRYRPSLKNRLTITKDTSKNQVVLTMTNMDPVDTATYYCTHYGVTAPFYNWFDPWGQGTLVTVSS
VL: DIQMTQSPSSLSASVGDRVTITCRASQSITSYLNWYQQKPGKAPKLLIYAASSLQSGVPSRFSGSGSGTDFTLTISSLQPEDFATYYCQRSYSTLTFGGGTKVEIKR
For B9, the “IC50 of indirect killing assay” value in experiment [1] came to 0.09 nM.

B10: anti-CDH17 recombinant antibody 19C7 (human IgG1) (antibody, V domains shown)
VH: QITLKESGPTLVKPTQTLTLTCTFSGISLSTGGVGVGWIRQPPGKALEWLSLIYWNDDKRYSPSLKSRLTITKDSSKNQVVLTMTNMDPVDTATYYCAHSGLAAPFYNWFDPWGQGTLVTVSS
VL: DIQMTQSPSSLSASVGDRVTITCRASQSISNYLNWYQLKPGNAPKLLIFAASSLQSGVPSRFSGSGSGTDFTLTISSLQPEDFATYFCQRSYSTLTFGGGTKVEIKR
As for B10, the “IC50 of indirect killing assay” value in experiment [1] worked out at 0.09 nM.
